The DeepSol protein solubility set

Assay: soluble on expression in E. coli; label from the status in PepcDB or PDB records

Row | Sequence | soluble on expression in E. coli
1 | MSQPAKVLLLYAHPESQDSVANRVLLKPAIQHNNVTVHDLYARYPDFFIDTPYEQALLREHDVIVFQHPLYTYSCPALLKEWLDRVLSRGFASGPGGNQLVGKYWRSVITTGEPESAYRYDALNRYPMSDVLRPFELTAAMCRMHWMPPIIVYWARRQSPQTLASHAKAYGEWLANPVSAGGY | not soluble
2 | MGSDKIHHHHHHMIDITDKQSCCGCSSCVQKCPRQCISLHEDTEGFLYPVVDKGDCIDCGLCEKVCPLLHWGEALVPMEVLAVKNKNQEERIHSSSGGVFIALSRQIIMDGGVVFGAVYDENWEVRITYSETLDGVRPMMGSKYLQARVETGFADAERFLKQGRYVLFSGTPCQIAGLHKYLRKDYPNLLSVDFLCHGVPSPGVWRRYLKETMSDLQSARRAAAGKNTVFPSLNVMPTIVGIEFRDKTLHGWKKYSFVVRGKSAFNADKNSVLLSDIHRENPFMRGFLSDIYLRPSCYECKCKNGVSHSDLTIADFWGIDRLMPDFDDDKGIGLALVNTVKGKQIFKRLSIDIRLSALSDVVALNGGFKEYRQPHPARLVFFRRFAVGETVESIVEDILRVPLWRRVMRNIKTFCKMIINRKQLTIIPLFIRRSKKRDK | not soluble
3 | MAHHHHHHMVSMIVAGATGAIGRTVVQYAIQQPSIDRVVALTRFRNTAVSNYENLFGIIVAGEAGNTDSRGDGANSKRKKGSGSPAGTVTATPAEAAKIRPITMDWEEFTQLWVAKRSSTSAAASGADNCAAGAAATAITDPTERYRGIFGGHTYAAMCLGTTRKDAGSAKSFTRCDYDYVMAFTEAVLAYSAPAGLSPAKAFVHHIGDGGASKQVHVQEGMGKEVDVLAAMNANAAQSSGTLRVFCQVSSSNASSSSWFLYMQTKGIADESTVERVHRHNKCATAAAALSPVNLLLLQPGLLERHGKTRATEKFAKLIMSSIPVETCGAAIVSACKSLPIQHSVQRAETTSAAEQAKHDEVEGAQVEKENNTVAAGVRKTPLGKPYVATKALCKAGMPPNEPLPYIYAANNAVITDLASRLTA | not soluble
4 | MGSDKIHHHHHHMLNVSIVIPAWNEQERINDCLLNATRQTVMPHEVIVVDNRSTDSTVAVVEQFMKDHPEAPVKLLHQDDEQGLIPTRDYGLNHATGDILGRFDADCMIRPDWVEVVSGIFTEDPDAMGATGPVMYYDLPSRHFGLRGDNSTRKRIYRADDGQPLLFGSNMALRATAWREIADEVCQDKADVMHEDIDISLHLLGKDLKTVYCPRMIAGISARRMDTSPASFLNYMRRFKNTFNAHPQHYRKHKPEILITALYPVMHLLYPVWQKVLNTADINPAEAAWINEQMELAEQEGHELYDDTPTDEEWSEKHEE | not soluble
5 | GAMKNSFDRLIDGLAKDYGMPGFPEKKHEHEVYCFEFKEVSIRIYQDKFKWVYFLSDIGVIDNLDSNACQSLLRLNEFNLRTPFFTVGLNEKKDGVVHTRIPLLNLDNVEMRRVFEALLNLSGEVKKTFGFV | soluble
6 | MGSDKIHHHHHHVLRAGLIHSLASRPQTWHSTAMDSDGYEIETHVGRRRAMRYHFWIDHEILRYPWTNFDEIAPGVFRSNHPTRARFKAYAERGIKTILTLRGGEDRPHHLLEVEACRDFGLTFECVPMSARHAPTVAQLSAVFEVLDRIERPFLIHCKSGADRTGLVSAIYLMHYENIPFDQARVQLSFRYIHIRRSQTGILDVFLEAFAARHAETGIGIRDWIMTEYDEAALTASFDQRQRNLWPWEGWRSGVS | not soluble
7 | MGSDKIHHHHHHMNQNVTSKVYPWQQTMWETLTTRFPNIGHGLLFYGKQGCGKHAFAKHFLAWVLCLNKQPQGACGECSSCQWLKSDTHPNYVHITTDEENKKQNAKIKIEKIRDLLPFVQQTGEGWRVVVIEPAEALNLASSNALLKTLEEPGERVVLILLADHYLKLPATIRSRLQHFALDRISYTEATSYLNEHLAETASVPAELLLGLSNDMPLQAVEIATSDWFAKRQSFLEDWTKVVNQKNMPLFYSAKWQKELNFSDFMMLLEYLLGDLICVKLNQPQKNIDLQFDQLAQNYNLESLFSLYEELQQSKRLVEQNVQTQLIIDQLFIKLMNV | not soluble
8 | MPFHYPKLYMDHRGNMSTSSSLTSSTTATSSSSTGGVRKQILTLKPKQPNGYVQHLEIKAKESSQSSVISGGVPVPVTLLELKKKDRSEKNVVTNLKYRKPTANHHLDSVHSSSEHHHHHHLSLSSLTRRPGSPSSSGYETDSLVDQENCDVFSSLFNSSLSYQSALDHHHQFHELDMLHSHPIWSPQLPNNNTSLMMGSNSYYLQ | not soluble
9 | MGHHHHHHSHMNQSRSRSDGGSEETLPQDHNHHENERRWQQERLHREEAYYQFINELNDEDYRLMRDHNLLGTPGEITSEELQQRLDGVKEQLASQPDLRDGTNYRDSEVPRESSHEDSLLEWLNTFRRTGNATRSGQNGNQTWRAALPDTS | not soluble
10 | MAKKVAAQIKLQLPAGKATPAPPVGPALGQHGVNIMEFCKRFNAETADKAGMILPVVITVYEDKSFTFIIKTPPASFLLKKAAGIEKGSSEPKRKIVGKVTRKQIEEIAKTKMPDLNANSLEAAMKIIEGTAKSMGIEVVD | soluble
11 | MGSDKIHHHHHHMSSSQQIAKNARKAGNILKTISNEGRSDILYKIHDALKANAHAIEEANKIDLAVAKETGLADSLLKRLDLFKGDKFEVMLQGIKDVAELEDPVGKVKMARELDDGLTLYQVTAPVGVLLVIFESRPEVIANITALSIKSGNAAILKGGKESVNTFREMAKIVNDTIAQFQSETGVPVGSVQLIETRQDVSDLLDQDEYIDLVVPRGSNALVRKIKDTTKIPVLGHADGICSIYLDEDADLIKAKRISLDAKTNYPAGCNAMETLLINPKFSKWWEVLENLTLEGGVTIHATKDLKTAYFDKLNELGKLTEAIQCKTVDADEEQDFDKEFLSLDLAAKFVTSTESAIQHINTHSSRHTDAIVTENKANAEKFMKGVDSSGVYWNASTRFADGFRYGFGAEVGISTSKIHARGPVGLDGLVSYQYQIRG | not soluble
12 | MSLRDKKGPVNKRVDFLSNKLNKYSIRKFTVGTASILIGSLMYLGTQQEAEAAENNIENPTTLKDNVQSKEVKIEEVTNKDTAPQGVEAKSEVTSNKDTIEHEASVKAEDISKKEDTPKEVANVAEVQPKSSVTHNAEAPKVRKARSVDEGSFDITRDSKNVVESTPITIQGKEHFEGYGSVDIQKNPTDLGVSEVTRFNVGNESNGLIGALQLKNKIDFSKDFNFKVRVANNHQSNTTGADGWGFLFSKGNAEEYLTNGGILGDKGLVNSGGFKIDTGYIYTSSMDKTEKQAGQGYRGYGAFVKNDSSGNSQMVGENIDKSKTNFLNYADNSTNTSDGKFHGQRLNDVILTYVASTGKMRAEYAGKTWETSITDLGLSKNQAYNFLITSSQRWGLNQGINANGWMRTDLKGSEFTFTPEAPKTITELEKKLKRFHSRKNVNLIRIEGHHHHHH | not soluble
13 | MSLQNHDLESIKQAALIEYEVREQGSSDVLDSNISKEPLEFIIGANQIIVGLEKAVLKAQIGEWEEIVIAPEEAYGVYESGYLQEVPRDQFEGIELEKGMSVFGQTEDNQTIQATIKDFSNTHVMVDYNHPLAGKTLAFRFKVLGFREVSEEEILASHHDSGTGCCGGHGGHGGKKGGGCGCSCSHGEGGSHHHHHH | soluble
14 | MCLIAFDWQPDAAAGPVFTLIANRDEFFRRTSAPLSWWEDVPGVLAGRDLEAGGTWLGVSRDGRFAALTNYRAPFDIRAGAPTRGKLVSDFLGGPPVAPLDYLGALAEHSAVYNGFNLLVGDWKRRELAWFCNRAAEGETAVAPPVAVSAGVHALSNARLDTPWPKIVRKRAELGTLLTDNPTPSLDELIELMRDPRVADDDALPHTGIPIERERALSAAFIETPEYGTRGTTALRVTMKEGVRLTVDIKERCDDDGSHRTVRPGTFERAFTFDIDATQPRLEHHHHHH | soluble
15 | MAGDPMETLLIQQTEKSNKFWKIVVKEKDYVVFYGKIGTAGSVKAKEFETEEECMNEANKLVASKRKKGYIDPLPGEDYIKEKTITEEEFWELLHRAKTKGEDQEEQIEWLTSHLAKRTVHEIVAFDTHMHSLLKDSYTSRLWAAAYIIMGGCSDDTFDYFRGWLLYQGKETYEACIEDPERLIPVLENLSEYDVPEIEELSLYFGFTVYAEKTGDEDDTYFTLYHVLSNEEFDDVDFEFDWNEDDEEGLKKVFPRLWEMYGEEPIEWLEHHHHHH | soluble
